Data on two substances can be found in patent publication US20110318347A1.

In assay [1] the target is human CXCR4 (human).
For assay [2], the target named is human CXCR4 (human). Description: cell-based or functional assay.
In assay [3] the target is human CXCR4 (human). Briefly: competition with [125I]-238D2 on HEK293T-CXCR4 membranes.
For assay [4], the target named is human CXCR4 (human). Description: competition with [125I]-238D4 on HEK293T-CXCR4 membranes.
Assay [5] deals with human CXCR4 (human). Briefly: competition with [125I]-CXCL12 on HEK293T-CXCR4 membranes.
Assay [6] deals with human CXCR4 (human). Description: competition vs [125I]-238D2 (3 nM), membranes of HEK293T cells expressing CXCR4.
For assay [7], the target named is human CXCR4 (human). Briefly: competition vs [125I]-238D4 (3 nM), membranes of HEK293T cells expressing CXCR4.
In assay [8] the target is human CXCR4 (human). Briefly: competition vs [125I]-CXCL12 (40 pM), membranes of HEK293T cells expressing CXCR4.
In assay [9] the target is human CXCR4 (human). Briefly: periplasmic fraction (1:10), displacement of [125I]-CXCL12, HEK293T-CXCR4 membranes; - = 0-29%, + = 30-69%, ++ = 70-100%. (In a radioligand displacement assay an active substance lowers the binding of a labelled ligand.)

The term pKi denotes the negative decadic logarithm of the Ki, by convention in mol/L. Read a high pKi as a small Ki.

Sequence of Nanobody 238D2 (VHH) (VHH): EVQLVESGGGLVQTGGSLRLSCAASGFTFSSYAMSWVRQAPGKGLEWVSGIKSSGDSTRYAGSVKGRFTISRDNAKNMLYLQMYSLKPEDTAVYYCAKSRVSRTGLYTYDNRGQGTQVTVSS

In the case of Nanobody 238D2 (VHH), the IC50 (read off the curve), migration of Jurkat cells towards 0.3 nM CXCL12 in assay [1] is 8 nM. In assay [2], the Anti-HIV-1 activity (in nM), MT-4/HE came to 26.7 nM; the Anti-HIV-1 activity (in nM), MT-4/NL4.3 was 30.7 nM; the Anti-HIV-1 activity (in nM), PBMC/HE turned out to be 44.7 nM; the Anti-HIV-1 activity (in nM), PBMC/NL4.3 came out at 30.9 nM. Also, in assay [2], the Anti-HIV-1 activity (in nM), U87.CD4.CXCR4/NL4.3 was 44.7 nM; the CRE activation, HEK293T-CXCR4-CREbgal/0.01-100 nM CXCL12, Imax (%) was 104%; the Chemotaxis, Jurkat/0.3 nM CXCL12, Imax (%) is 106%; the IC50, HIV-1 NL4.3, MT-4 cells, exp. 1 is 0.701 µg/mL. Also, in [2], the IC50, HIV-1 NL4.3, PBMC donor 1 was 0.468 µg/mL; the IC50, HIV-1 NL4.3, PBMC donor 2 came out at 0.307 µg/mL; the IC50, HIV-1 UG270, PBMC donor 1 was found to be 0.492 µg/mL; the IC50, HIV-1 UG270, PBMC donor 2 came out at 0.447 µg/mL. In assay [2], this substance displayed an IC90, HIV-1 NL4.3, MT-4 cells, exp. 1 of 0.849 µg/mL; an IC90, HIV-1 NL4.3, PBMC donor 1 above 1 µg/mL; an IC90, HIV-1 NL4.3, PBMC donor 2 above 1 µg/mL; an IC90, HIV-1 UG270, PBMC donor 1 above 1 µg/mL. In assay [2], the IC90, HIV-1 UG270, PBMC donor 2 came out at 0.851 µg/mL; the IP accumulation, HEK293T-CXCR4-Gαqi5/30 nM CXCL12, Imax (%) came to 86%; the nM IC50, HIV-1 NL4.3, PBMC donor 1 was 31.2 nM; the nM IC50, HIV-1 NL4.3, PBMC donor 2 came to 20.5 nM. Further, in [2], the nM IC50, HIV-1 UG270, PBMC donor 1 is 32.8 nM and the nM IC50, HIV-1 UG270, PBMC donor 2 worked out at 29.8 nM. In addition, the IC50 (read off the curve) in assay [3] stood at 6 nM. In assay [4], this substance registered an IC50 (read off the curve) of 4 nM. Besides, the IC50 (read off the curve) in [5] was determined as 20 nM. In [6], this substance came in with a Displacem. (%) of 97% and a negative logarithm of the Ki (pKi) of 8.41. Moreover, the negative-log Ki (pKi) in [7] worked out at 8.23. For the same substance, in assay [8], the Displacem. (%) turned out to be 93% and the pKi amounted to 8.01. Besides, the percent inhibition of specific [125I]-CXCL12 binding in assay [9] is 70 to 100%.

monoclonal antibody 12G5: the Displacem. (%) in assay [6] came to 89%; in [7] it was 90%; in assay [8], 54%. The pKi in assay [6] is 9.65; in assay [7], 9.31; in [8], 9.19.
